US20190185568A1 (FUSO PHARMACEUTICAL INDUSTRIES, published 2019)

Columns and labels:
[1] = molecular target: T1, bovine FcγRII-His (soluble extracellular region with 6xHis tag) (bovine, UniProt Q28110 43-225); test: ELISA: antibody immobilized at 1.56 to 50 nM, bovine FcγRII-His added at 10 µg/ml, anti-polyhistidine detection [B]
T1 construct: extracellular domain; also called boFcγRII-His
T1 sequence: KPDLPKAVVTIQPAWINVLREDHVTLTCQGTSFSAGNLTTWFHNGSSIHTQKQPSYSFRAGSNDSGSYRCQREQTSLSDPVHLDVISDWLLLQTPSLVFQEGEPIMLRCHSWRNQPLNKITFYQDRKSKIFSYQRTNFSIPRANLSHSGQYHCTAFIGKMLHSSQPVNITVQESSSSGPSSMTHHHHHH
Method: (§1) Subsequently, each well was washed with […] of 0.05% Tween 20-supplemented PBS (PBS-T) five times, followed by blocking with SuperBlock (PBS) Blocking Buffer (Thermo Fisher Scientific) at 37° C. for 30 min, Each well was washed again in the same manner. Then, bovine FcγRI-His, FcγRII-His, FcγRIII-His or Fcγ2R-His was added to each well at a final concentration of 10 μg/ml and reacted at 37° C. for 1 hr. After washing, anti-polyhistidine tag mouse monoclonal antibody (Abeam) was reacted at 37° C. for 30 min. Subsequently, each well was washed, and horseradish peroxidase-labeled anti-mouse IgG goat polyclonal antibody (MP Biomedicals) was reacted at 37° C. for 30 min. Each well was washed again, and then TMB One Component Substrate (Bethyl) was added for coloring. Thereafter, the enzyme reaction was terminated with 0.18 M dilute sulfuric acid, and absorbance (450 nm) was measured with Microplate Reader MTP-900 (Corona Electric), For every plate washing operation, Auto Plate Washer BIO WASHER 50 (DS Pharma Biomedical) was used.

[2] = molecular target: T2, bovine FcγRI-His (soluble extracellular region with 6xHis tag) (bovine); test: ELISA: antibody immobilized at 1.56 to 50 nM, bovine FcγRI-His added at 10 µg/ml, anti-polyhistidine detection [A]
T2 construct: extracellular domain; also called boFcγRI-His; not shown: limits not st
Method: as §1

[3] = molecular target: T3, bovine PD-1-His (soluble bovine PD-1 extracellular region with 6xHis tag) (bovine); test: SPR (Biacore X100), bovine PD-1-His immobilized on CM5 chip, antibody as analyte, single kinetics, n=3
T3 chain: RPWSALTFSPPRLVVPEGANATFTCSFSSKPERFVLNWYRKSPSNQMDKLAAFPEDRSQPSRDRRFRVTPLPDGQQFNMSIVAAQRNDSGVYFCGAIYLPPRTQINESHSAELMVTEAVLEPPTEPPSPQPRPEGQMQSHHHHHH
Method: The binding avidities to bovine PD-1 of rat anti-bovine PD-1 antibody 5D2 and rat-bovine chimeric anti-bovine PD-1 antibody ch5D2 were measured by surface plasmon resonance using a bimolecular interaction analyzer (Biacore X100). Briefly, bovine PD-1-His (described above) was immobilized on a CM5 sensor chip (GE Healthcare) as a ligand. Subsequently, rat anti-bovine PD-1 antibody 5D2 or rat-bovine chimeric anti-bovine PD-1 antibody ch5D2 was reacted as an analyte, followed by single kinetics analysis. The experiment was repeated 3 times under the same conditions. Binding constant (kd value) and dissociation constant (ka value) were determined in each experiment, and binding avidity (KD value) was obtained.

B1: rat-bovine chimeric anti-bovine PD-1 antibody ch5D2 having wild-type bovine IgG1 (IgG1 WT) (antibody)
heavy: QVQLKETGPGLVQPTQTLSITCTVSGFSLTSYYIQWVRQTPGKGLEWMGFIRSGGSTEYNSEFKSRLSINRDTSKNQVFLKMNSLKTEDTGVYYCARTSSGYEGGFDYWGQGVMVTVSSASTTAPKVYPLSSCCGDKSSSTVTLGCLVSSYMPEPVTVTWNSGALKSGVHTFPAVLQSSGLYSLSSMVTVPGSTSGQTFTCNVAHPASSTKVDKAVDPTCKPSPCDCCPPPELPGGPSVFIFPPKPKDTLTISGTPEVTCVVVDVGHDDPEVKFSWFVDDVEVNTATTKPREEQFNSTYRVVSALRIQHQDWTGGKEFKCKVHNEGLPAPIVRTISRTKGPAREPQVYVLAPPQEELSKSTVSLTCMVTSFYPDYIAVEWQRNGQPESEDKYGTTPPQLDADSSYFLYSKLRVDRNSWQEGDTYTCVVMHEALHNHYTQKSTSKSAGK
light: DVVLTQTPVSLSVTLGDQASISCRSSQSLEYSDGYTYLEWYLQKPGQSPQLLIYGVSNRFSGVPDRFIGSGSGTDFTLKISRVEPEDLGVYYCFQATHDPDTFGAGTKLELKQPKSPPSVTLFPPSTEELNGNKATLVCLISDFYPGSVTVVWKADGSTITRNVETTRASKQSNSKYAASSYLSLTSSDWKSKGSYSCEVTHEGSTVTKTVKPSECS
notes: also called ch5D2 IgG1 WT
With B1 the binding result [1] was “binds” and the “EC50 (read off the curve)” value [2] was ~9 nM.

B2: rat-bovine chimeric anti-bovine PD-1 antibody ch5D2 (mutated bovine IgG1, IgG1 ADCC-) (antibody)
heavy: QVQLKETGPGLVQPTQTLSITCTVSGFSLTSYYIQWVRQTPGKGLEWMGFIRSGGSTEYNSEFKSRLSINRDTSKNQVFLKMNSLKTEDTGVYYCARTSSGYEGGFDYWGQGVMVTVSSASTTAPKVYPLSSCCGDKSSSTVTLGCLVSSYMPEPVTVTWNSGALKSGVHTFPAVLQSSGLYSLSSMVTVPGSTSGQTFTCNVAHPASSTKVDKAVDPTCKPSPCDCCPPPPVAGPSVFIFPPKPKDTLTISGTPEVTCVVVDVGHDDPEVKFSWFVDDVEVNTATTKPREEQFNSTYRVVSALRIQHQDWTGGKEFKCKVHNEGLPSSIVRTISRTKGPAREPQVYVLAPPQEELSKSTVSLTCMVTSFYPDYIAVEWQRNGQPESEDKYGTTPPQLDADSSYFLYSKLRVDRNSWQEGDTYTCVVMHEALHNHYTQKSTSKSAGK
light: B1 light
notes: Rat 5D2 variable regions on bovine IgG1 (modified from GenBank X62916) and bovine Ig lambda (X62917); also called ch5D2 IgG1 ADCC-
B2 was tested, and the binding result [1] was “no binding (tested: 50 nM)”, the Kd [3] was 10.5 nM and the koff [3] was 0.000216 s⁻¹. For the same binder, the kon [3] was 20700 M⁻¹ s⁻¹.

B3: rat anti-bovine PD-1 monoclonal antibody 5D2 (antibody, V domains shown)
VH: QVQLKETGPGLVQPTQTLSITCTVSGFSLTSYYIQWVRQTPGKGLEWMGFIRSGGSTEYNSEFKSRLSINRDTSKNQVFLKMNSLKTEDTGVYYCARTSSGYEGGFDYWGQGVMVTVSS
VL: DVVLTQTPVSLSVTLGDQASISCRSSQSLEYSDGYTYLEWYLQKPGQSPQLLIYGVSNRFSGVPDRFIGSGSGTDFTLKISRVEPEDLGVYYCFQATHDPDTFGAGTKLELK
notes: Rat monoclonal antibody from a hybridoma; Rat IgG2a (kappa) was used as its isotype control; also called rat anti-bovine PD-1 antibody 5D2
For B3, the Kd [3] was 12.2 nM, the koff [3] was 0.000215 s⁻¹ and the kon [3] was 18400 M⁻¹ s⁻¹.
